{"source": "patent US5747253", "system": "c-Myc, P01106-1", "sequence (P01106 16-454)": "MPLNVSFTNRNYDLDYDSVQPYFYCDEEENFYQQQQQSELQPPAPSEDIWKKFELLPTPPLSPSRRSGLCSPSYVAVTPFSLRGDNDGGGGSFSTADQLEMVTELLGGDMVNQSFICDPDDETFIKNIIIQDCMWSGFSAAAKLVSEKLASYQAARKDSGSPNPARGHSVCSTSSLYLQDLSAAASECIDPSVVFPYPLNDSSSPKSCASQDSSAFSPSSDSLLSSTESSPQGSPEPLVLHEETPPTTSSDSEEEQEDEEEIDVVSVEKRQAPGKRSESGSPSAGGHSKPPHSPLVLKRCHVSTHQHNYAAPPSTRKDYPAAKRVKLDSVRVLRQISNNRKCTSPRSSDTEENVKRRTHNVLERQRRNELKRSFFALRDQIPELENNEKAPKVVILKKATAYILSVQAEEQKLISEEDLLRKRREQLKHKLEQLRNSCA", "experiment": "competition", "settings": "2'-OMe; 50 uM pool vs myc PS site; FIG. 5 labels this pool SEQ ID NO:33", "data": [{"sequence": "GCGNNNCNNNNNNCGC [2'-OMe pool X=C]", "values": [{"measurement": "binding signal", "result": 50, "unit": "% inhibition"}]}]}
